# How the values were obtained:
# [1] = target: ferroportin (human (endogenous in HEK 293 and iPSC-derived ECs)) (UniProt Q9NP59)
# [2] = target: ferroportin (human (endogenous in HEK 293 and iPSC-derived ECs)) (UniProt Q9NP59); remark: listed apart in the source
# [3] = target: ferroportin (human (endogenous in HEK 293 and iPSC-derived ECs)) (UniProt Q9NP59); remark: listed apart in the source
# Chain of UniProt Q9NP59 (Q9NP59 whole entry): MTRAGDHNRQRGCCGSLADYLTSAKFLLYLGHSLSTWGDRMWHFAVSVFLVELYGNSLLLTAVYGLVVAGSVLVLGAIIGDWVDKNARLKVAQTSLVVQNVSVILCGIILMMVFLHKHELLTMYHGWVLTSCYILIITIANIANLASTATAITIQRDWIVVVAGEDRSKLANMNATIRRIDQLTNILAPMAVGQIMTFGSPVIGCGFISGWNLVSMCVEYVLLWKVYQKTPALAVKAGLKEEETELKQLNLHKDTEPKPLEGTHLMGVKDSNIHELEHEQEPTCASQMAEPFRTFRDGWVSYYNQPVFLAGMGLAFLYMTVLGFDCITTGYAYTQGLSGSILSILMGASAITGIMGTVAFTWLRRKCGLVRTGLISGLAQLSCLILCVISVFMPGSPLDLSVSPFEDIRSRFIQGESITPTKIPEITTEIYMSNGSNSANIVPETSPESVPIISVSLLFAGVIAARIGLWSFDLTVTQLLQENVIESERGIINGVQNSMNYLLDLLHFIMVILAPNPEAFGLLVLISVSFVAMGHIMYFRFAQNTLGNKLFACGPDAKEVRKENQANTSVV
Substance,"Fpn protein level in iPSC-derived ECs after 8 h with increasing concentrations of holo-Tf in the basal chamber (immunoblot), from 0.1 μM [1]","Fpn protein level in iPSC-derived ECs with 0.25 μM holo-Tf over time, intervals of 1 h up to 5 h (immunoblot) [2]","membrane Fpn in HEK 293 cells with 0.25 μM holo-Tf, 5-60 min (membrane protein isolation, immunoblot), compared to control [3]","membrane Fpn in HEK 293 cells with 500 nM hepcidin, 5-60 min (membrane protein isolation, immunoblot), compared to holo-Tf treatment [3]"
holo-transferrin (iron bound transferrin) (from UniProt P02787 20-698) (natural protein),50%,50%,20%,–
hepcidin (peptide),–,–,–,70%
